Key:
[1] = molecular target: T1, recombinant human HER2 (R&D systems) (human, UniProt P04626 23-652); assay: ELISA, recombinant human HER2 coated; masked antibody, not digested
Procedure: (§1) ELISA-based binding assays were employed to evaluate the binding to HER2 by exemplary HER2 x VEGF bispecific antibodies with or without IGF2 masking domain (FIG. 9). In these assays, 1 μg/mL recombinant human HER2 (R&D systems) were coated on ELISA plate. Increasing concentrations of exemplary HER2 x VEGF bispecific antibodies were applied on the plate and their bindings to the recombinant human HER2 were detected by HRP-conjugated anti-human IgG secondary antibody.

[2] = molecular target: T2, HER2 expressed on SK-BR-3 cell surface (UniProt P04626 23-1255, limits assumed); assay: flow cytometry on SK-BR-3 cells; masked antibody, not digested
T2 construct: whole, on cells; also called cell surface HER2; HER2-expressing SK-BR-3 cells
Source text: (§2) Flow cytometry-based binding assays were also employed to evaluate the binding to HER2 expressed on cell surface by exemplary HER2 x VEGF bispecific antibodies with or without IGF2 masking domain (FIG. 10). In these assays, increasing concentrations of exemplary HER2 x VEGF bispecific antibodies were applied to HER2-expressing SK-BR-3 cells and their bindings to cell surface HER2 were detected by PE-conjugated anti-human secondary antibody by MacsQuant flow cytometer.

[3] = molecular target: T1, recombinant human HER2 (R&D systems); assay: ELISA, recombinant human HER2 coated at 1 ug/mL, anti-human IgG-HRP
Procedure: as §1

[4] = molecular target: T2, HER2 expressed on SK-BR-3 cell surface; assay: flow cytometry on SK-BR-3 cells, PE anti-human secondary
Source text: as §2

[5] = molecular target: T1, recombinant human HER2 (R&D systems); assay: ELISA, recombinant human HER2 coated; unmasked reference of the comparison (higher potency than uncut)
Procedure: as §1

[6] = molecular target: T2, HER2 expressed on SK-BR-3 cell surface; assay: flow cytometry on SK-BR-3 cells; unmasked reference of the comparison (higher potency than uncut)
Source text: as §2

[7] = molecular target: recombinant human PD-L1 (R&D systems) (human, UniProt Q9NZQ7 19-239); assay: ELISA, recombinant human PD-L1 coated at 1 ug/mL, anti-human IgG-HRP
Sequence of recombinant human PD-L1 (R&D systems) (Q9NZQ7 19-239 limits assumed): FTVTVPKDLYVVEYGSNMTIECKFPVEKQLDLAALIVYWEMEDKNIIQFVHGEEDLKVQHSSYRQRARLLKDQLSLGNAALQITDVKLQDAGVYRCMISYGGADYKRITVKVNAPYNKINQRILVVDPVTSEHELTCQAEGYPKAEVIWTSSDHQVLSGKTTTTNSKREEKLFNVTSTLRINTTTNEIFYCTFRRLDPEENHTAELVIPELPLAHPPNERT
Procedure: ELISA-based binding assays were employed to evaluate the binding to PD-L1 by these bispecific antibodies (FIG. 31A). In these assays, 1 μg/mL recombinant human PD-L1 (R&D systems) were coated on ELISA plate. Increasing concentrations of exemplary HER2 x VEGF bispecific antibodies with ScFv of an anti-PD-L1 antibody as a homing domain were applied on the plate and their bindings to the recombinant human PD-L1 were detected by HRP-conjugated anti-human IgG secondary antibody.

Row | binding result [5] | binding result [6] | binding result [7] | Binder | further results
1 |  |  |  | IGF2_MMP2_TrasVH1VL1 x BevaVH3VL1_IgG1_LS_E345R uncut (bispecific antibody) heavy 1: GILEECCFRSCDLALLETYCAGGGGSPLGLAGGGGGSQVQLVQSGAEVKKPGSSVKVSCKASGFNIKDTYIHWVRQAPGQGLEWMGRIYPTNGYTRYAQKFQGRATITADESTSTAYMEVSSLRSEDTAVYYCSRWGGDGFYAMDYWGQGTLVTVSSASTKGPSVFPLAPSSKSTSGGTAALGCLVKDYFPEPVTVSWNSGALTSGVHTFPAVLQSSGLYSLSSVVTVPSSSLGTQTYICNVNHKPSNTKVDKKVEPKSCDKTHTCPPCPAPELLGGPSVFLFPPKPKDTLMISRTPEVTCVVVDVSHEDPEVKFNWYVDGVEVHNAKTKPREEQYNSTYRVVSVLTVLHQDWLNGKEYKCKVSNKALPAPIEKTISKAKGQPRRPQVYTLPPSRDELTKNQVSLTCLVKGFYPSDIAVEWESNGQPENNYKTTPPVLDSDGSFLLYSKLTVDKSRWQQGNVFSCSVLHEALHSHYTQKSLSLSPGK light 1: AYRPSETLCGGELVDTLQFVCGDRGFAFGGGGSPLGLAGGGGGSDIVMTQTPLSLPVTPGEPASISCRASQDVNTAVAWYLQKPGQSPQLLIYSASFRYTGVPDRFSGSGSGTDFTLKISRVEAEDVGVYYCQQHYTTPPTFGQGTKVEIKRTVAAPSVFIFPPSDEQLKSGTASVVCLLNNFYPREAKVQWKVDNALQSGNSQESVTEQDSKDSTYSLSSTLTLSKADYEKHKVYACEVTHQGLSSPVTKSFNRGEC heavy 2: GILEECCFRSCDLALLETYCAGGGGSPLGLAGGGGGSQVQLVQSGAEVKKPGSSVKVSCKASGYTFTNYGMNWVRQAPGQGLEWMGWINTYTGEPTYAQKFQGRVTITADESTSTAYMELSSLRSEDTAVYYCAKYPHYYGSSHWYFDVWGQGTLVTVSSASTKGPSVFPLAPSSKSTSGGTAALGCLVKDYFPEPVTVSWNSGALTSGVHTFPAVLQSSGLYSLSSVVTVPSSSLGTQTYICNVNHKPSNTKVDKKVEPKSCDKTHTCPPCPAPELLGGPSVFLFPPKPKDTLMISRTPEVTCVVVDVSHEDPEVKFNWYVDGVEVHNAKTKPREEQYNSTYRVVSVLTVLHQDWLNGKEYKCKVSNKALPAPIEKTISKAKGQPRRPQVYTLPPSRDELTKNQVSLTCLVKGFYPSDIAVEWESNGQPENNYKTTPPVLDSDGSFFLYSRLTVDKSRWQQGNVFSCSVLHEALHSHYTQKSLSLSPGK light 2: not shown | binding result [1]: binds; binding result [2]: binds
2 |  |  |  | Beva_IgG1_LS (antibody, V domains shown, also called EAC291/EAC207) VH: EVQLVESGGGLVQPGGSLRLSCAASGYTFTNYGMNWVRQAPGKGLEWVGWINTYTGEPTYAADFKRRFTFSLDTSKSTAYLQMNSLRAEDTAVYYCAKYPHYYGSSHWYFDVWGQGTLVTVSS VL: DIQMTQSPSSLSASVGDRVTITCSASQDISNYLNWYQQKPGKAPKVLIYFTSSLHSGVPSRFSGSGSGTDFTLTISSLQPEDFATYYCQQYSTVPWTFGQGTKVEIKR | binding result [3]: no binding; binding result [4]: no binding
3 | binds | binds |  | TrasVH1VL1 x BevaVH3VL1_IgG1_LS (bispecific antibody) heavy 1: QVQLVQSGAEVKKPGSSVKVSCKASGFNIKDTYIHWVRQAPGQGLEWMGRIYPTNGYTRYAQKFQGRATITADESTSTAYMEVSSLRSEDTAVYYCSRWGGDGFYAMDYWGQGTLVTVSSASTKGPSVFPLAPSSKSTSGGTAALGCLVKDYFPEPVTVSWNSGALTSGVHTFPAVLQSSGLYSLSSVVTVPSSSLGTQTYICNVNHKPSNTKVDKKVEPKSCDKTHTCPPCPAPELLGGPSVFLFPPKPKDTLMISRTPEVTCVVVDVSHEDPEVKFNWYVDGVEVHNAKTKPREEQYNSTYRVVSVLTVLHQDWLNGKEYKCKVSNKALPAPIEKTISKAKGQPREPQVYTLPPSRDELTKNQVSLTCLVKGFYPSDIAVEWESNGQPENNYKTTPPVLDSDGSFLLYSKLTVDKSRWQQGNVFSCSVLHEALHSHYTQKSLSLSPGK light 1: DIVMTQTPLSLPVTPGEPASISCRASQDVNTAVAWYLQKPGQSPQLLIYSASFRYTGVPDRFSGSGSGTDFTLKISRVEAEDVGVYYCQQHYTTPPTFGQGTKVEIKRTVAAPSVFIFPPSDEQLKSGTASVVCLLNNFYPREAKVQWKVDNALQSGNSQESVTEQDSKDSTYSLSSTLTLSKADYEKHKVYACEVTHQGLSSPVTKSFNRGEC heavy 2: QVQLVQSGAEVKKPGSSVKVSCKASGYTFTNYGMNWVRQAPGQGLEWMGWINTYTGEPTYAQKFQGRVTITADESTSTAYMELSSLRSEDTAVYYCAKYPHYYGSSHWYFDVWGQGTLVTVSSASTKGPSVFPLAPSSKSTSGGTAALGCLVKDYFPEPVTVSWNSGALTSGVHTFPAVLQSSGLYSLSSVVTVPSSSLGTQTYICNVNHKPSNTKVDKKVEPKSCDKTHTCPPCPAPELLGGPSVFLFPPKPKDTLMISRTPEVTCVVVDVSHEDPEVKFNWYVDGVEVHNAKTKPREEQYNSTYRVVSVLTVLHQDWLNGKEYKCKVSNKALPAPIEKTISKAKGQPREPQVYTLPPSRDELTKNQVSLTCLVKGFYPSDIAVEWESNGQPENNYKTTPPVLDSDGSFFLYSRLTVDKSRWQQGNVFSCSVLHEALHSHYTQKSLSLSPGK light 2: not shown | 
4 | binds | binds |  | TrasVH1VL1 x BevaVH3VL1_IgG1_LS_E345R (bispecific antibody) heavy 1: QVQLVQSGAEVKKPGSSVKVSCKASGFNIKDTYIHWVRQAPGQGLEWMGRIYPTNGYTRYAQKFQGRATITADESTSTAYMEVSSLRSEDTAVYYCSRWGGDGFYAMDYWGQGTLVTVSSASTKGPSVFPLAPSSKSTSGGTAALGCLVKDYFPEPVTVSWNSGALTSGVHTFPAVLQSSGLYSLSSVVTVPSSSLGTQTYICNVNHKPSNTKVDKKVEPKSCDKTHTCPPCPAPELLGGPSVFLFPPKPKDTLMISRTPEVTCVVVDVSHEDPEVKFNWYVDGVEVHNAKTKPREEQYNSTYRVVSVLTVLHQDWLNGKEYKCKVSNKALPAPIEKTISKAKGQPRRPQVYTLPPSRDELTKNQVSLTCLVKGFYPSDIAVEWESNGQPENNYKTTPPVLDSDGSFLLYSKLTVDKSRWQQGNVFSCSVLHEALHSHYTQKSLSLSPGK light 1: DIVMTQTPLSLPVTPGEPASISCRASQDVNTAVAWYLQKPGQSPQLLIYSASFRYTGVPDRFSGSGSGTDFTLKISRVEAEDVGVYYCQQHYTTPPTFGQGTKVEIKRTVAAPSVFIFPPSDEQLKSGTASVVCLLNNFYPREAKVQWKVDNALQSGNSQESVTEQDSKDSTYSLSSTLTLSKADYEKHKVYACEVTHQGLSSPVTKSFNRGEC heavy 2: QVQLVQSGAEVKKPGSSVKVSCKASGYTFTNYGMNWVRQAPGQGLEWMGWINTYTGEPTYAQKFQGRVTITADESTSTAYMELSSLRSEDTAVYYCAKYPHYYGSSHWYFDVWGQGTLVTVSSASTKGPSVFPLAPSSKSTSGGTAALGCLVKDYFPEPVTVSWNSGALTSGVHTFPAVLQSSGLYSLSSVVTVPSSSLGTQTYICNVNHKPSNTKVDKKVEPKSCDKTHTCPPCPAPELLGGPSVFLFPPKPKDTLMISRTPEVTCVVVDVSHEDPEVKFNWYVDGVEVHNAKTKPREEQYNSTYRVVSVLTVLHQDWLNGKEYKCKVSNKALPAPIEKTISKAKGQPRRPQVYTLPPSRDELTKNQVSLTCLVKGFYPSDIAVEWESNGQPENNYKTTPPVLDSDGSFFLYSRLTVDKSRWQQGNVFSCSVLHEALHSHYTQKSLSLSPGK light 2: not shown | 
5 |  |  | no binding | Tras x Beva_IgG1_LS (bispecific antibody, also called HER2 x VEGF bispecific antibody) heavy 1: not shown light 1: not shown heavy 2: EVQLVESGGGLVQPGGSLRLSCAASGYTFTNYGMNWVRQAPGKGLEWVGWINTYTGEPTYAADFKRRFTFSLDTSKSTAYLQMNSLRAEDTAVYYCAKYPHYYGSSHWYFDVWGQGTLVTVSSASTKGPSVFPLAPSSKSTSGGTAALGCLVKDYFPEPVTVSWNSGALTSGVHTFPAVLQSSGLYSLSSVVTVPSSSLGTQTYICNVNHKPSNTKVDKKVEPKSCDKTHTCPPCPAPELLGGPSVFLFPPKPKDTLMISRTPEVTCVVVDVSHEDPEVKFNWYVDGVEVHNAKTKPREEQYNSTYRVVSVLTVLHQDWLNGKEYKCKVSNKALPAPIEKTISKAKGQPREPQVYTLPPSRDELTKNQVSLTCLVKGFYPSDIAVEWESNGQPENNYKTTPPVLDSDGSFFLYSRLTVDKSRWQQGNVFSCSVLHEALHSHYTQKSLSLSPGK light 2: not shown | 
6 |  |  | no binding | Tras x Beva_IgG1_LS_E345R (bispecific antibody) heavy 1: not shown light 1: not shown heavy 2: EVQLVESGGGLVQPGGSLRLSCAASGYTFTNYGMNWVRQAPGKGLEWVGWINTYTGEPTYAADFKRRFTFSLDTSKSTAYLQMNSLRAEDTAVYYCAKYPHYYGSSHWYFDVWGQGTLVTVSSASTKGPSVFPLAPSSKSTSGGTAALGCLVKDYFPEPVTVSWNSGALTSGVHTFPAVLQSSGLYSLSSVVTVPSSSLGTQTYICNVNHKPSNTKVDKKVEPKSCDKTHTCPPCPAPELLGGPSVFLFPPKPKDTLMISRTPEVTCVVVDVSHEDPEVKFNWYVDGVEVHNAKTKPREEQYNSTYRVVSVLTVLHQDWLNGKEYKCKVSNKALPAPIEKTISKAKGQPRRPQVYTLPPSRDELTKNQVSLTCLVKGFYPSDIAVEWESNGQPENNYKTTPPVLDSDGSFFLYSRLTVDKSRWQQGNVFSCSVLHEALHSHYTQKSLSLSPGK light 2: not shown | 

From patent US20220153869A1 (TAVOTEK BIOTHERAPEUTICS HONG KONG, published 2022)
